Assay results as given in the supplement of paper PMC9112550, “Optimization of the antimicrobial peptide Bac7 by deep mutational scanning” (BMC Biology, 2022).

test system: Escherichia coli TOP10; experiment: shrunken log2 fold change of peptide-encoding DNA abundance (4.5 h post-induction vs induction); higher = less antimicrobial activity (less host growth inhibition); conditions: time post-induction: 4.5 h; library: site-saturation at positions 5, 18, 19, 20
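Also: peptides expressed intracellularly from a pBAD plasmid library in pooled LB shake-flask culture, induced with 0.3% L-arabinose, DNA abundance read by NGS, three biological replicates, DESeq2 with apeglm shrinkage.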

Compared with RRIRYRPPRLPRPRPRPCWEPRP, RRIRQRPPRLPRPRPRPLGDPRP is higher in “shrunken log2 fold change” value: -0.288 for the first, 0.0938 for the second.

Compared with RRIRGRPPRLPRPRPRPKYQPRP, RRIRVRPPRLPRPRPRPWHVPRP is lower in “shrunken log2 fold change” value: 0.159 for the first, -0.0616 for the second.

First: RRIRKRPPRLPRPRPRPCRDPRP
Second: RRIRCRPPRLPRPRPRPVRPPRP
The “shrunken log2 fold change” value of the first is lower: -0.136 for the first, 0.504 for the second.

Compared with RRIRCRPPRLPRPRPRPALVPRP, RRIRARPPRLPRPRPRPGMCPRP is higher in “shrunken log2 fold change” value: 0.281 for the first, 0.494 for the second.

RRIRQRPPRLPRPRPRPLCQPRP and RRIRMRPPRLPRPRPRPFPSPRP are within 0.2 log units of each other in “shrunken log2 fold change” value: -0.304 for the first, -0.18 for the second.

RRIRARPPRLPRPRPRPIMMPRP and RRIRKRPPRLPRPRPRPIMIPRP are within 0.2 log units of each other in “shrunken log2 fold change” value: -0.245 for the first, -0.0532 for the second.

RRIRTRPPRLPRPRPRPMQAPRP and RRIRMRPPRLPRPRPRPCLWPRP are within 0.2 log units of each other in “shrunken log2 fold change” value: -0.0247 for the first, 0.0121 for the second.

RRIRNRPPRLPRPRPRPNQCPRP and RRIRNRPPRLPRPRPRPGANPRP are within 0.2 log units of each other in “shrunken log2 fold change” value: -0.136 for the first, -0.151 for the second.

RRIRSRPPRLPRPRPRPFASPRP and RRIRSRPPRLPRPRPRPQEHPRP are within 0.2 log units of each other in “shrunken log2 fold change” value: 0.0202 for the first, -0.112 for the second.

RRIRCRPPRLPRPRPRPQGQPRP and RRIRKRPPRLPRPRPRPIEPPRP are within 0.2 log units of each other in “shrunken log2 fold change” value: 0.155 for the first, 0.0245 for the second.

Compared with RRIRMRPPRLPRPRPRPSETPRP, RRIRERPPRLPRPRPRPSVCPRP is lower in “shrunken log2 fold change” value: 0.814 for the first, -0.0246 for the second.

RRIRKRPPRLPRPRPRPAHKPRP and RRIRNRPPRLPRPRPRPGRPPRP are within 0.2 log units of each other in “shrunken log2 fold change” value: 0.0404 for the first, 0.123 for the second.

First: RRIRGRPPRLPRPRPRPYNFPRP
Second: RRIRKRPPRLPRPRPRPGQCPRP
The “shrunken log2 fold change” value of the first is lower: -0.35 for the first, 0.0394 for the second.

RRIRNRPPRLPRPRPRPMFYPRP and RRIRIRPPRLPRPRPRPKTLPRP are within 0.2 log units of each other in “shrunken log2 fold change” value: -0.166 for the first, -0.229 for the second.

Compared with RRIRYRPPRLPRPRPRPPWTPRP, RRIRCRPPRLPRPRPRPWAPPRP is higher in “shrunken log2 fold change” value: -0.343 for the first, -0.102 for the second.

RRIRARPPRLPRPRPRPRPGPRP and RRIRKRPPRLPRPRPRPGAGPRP are within 0.2 log units of each other in “shrunken log2 fold change” value: 0.814 for the first, 0.734 for the second.

RRIRNRPPRLPRPRPRPPWHPRP and RRIRVRPPRLPRPRPRPVERPRP are within 0.2 log units of each other in “shrunken log2 fold change” value: 0.129 for the first, 0.0358 for the second.

RRIRARPPRLPRPRPRPVITPRP and RRIRDRPPRLPRPRPRPYRRPRP are within 0.2 log units of each other in “shrunken log2 fold change” value: -0.021 for the first, -0.0062 for the second.

First: RRIRARPPRLPRPRPRPTWGPRP
Second: RRIRRRPPRLPRPRPRPVIEPRP
The “shrunken log2 fold change” value of the first is higher: 0.625 for the first, 0.119 for the second.

Compared with RRIRFRPPRLPRPRPRPCAMPRP, RRIRWRPPRLPRPRPRPTKIPRP is higher in “shrunken log2 fold change” value: -0.561 for the first, 0.0922 for the second.

Compared with RRIRYRPPRLPRPRPRPIVYPRP, RRIRTRPPRLPRPRPRPWRKPRP is higher in “shrunken log2 fold change” value: -1.23 for the first, -0.262 for the second.

RRIRLRPPRLPRPRPRPNMDPRP and RRIRYRPPRLPRPRPRPRSPPRP are within 0.2 log units of each other in “shrunken log2 fold change” value: 0.0212 for the first, 0.0591 for the second.

Compared with RRIRGRPPRLPRPRPRPRHCPRP, RRIRGRPPRLPRPRPRPHKWPRP is lower in “shrunken log2 fold change” value: 0.764 for the first, 0.183 for the second.

RRIRYRPPRLPRPRPRPERWPRP and RRIRPRPPRLPRPRPRPALDPRP are within 0.2 log units of each other in “shrunken log2 fold change” value: 0.44 for the first, 0.628 for the second.

First: RRIRGRPPRLPRPRPRPLPGPRP
Second: RRIRQRPPRLPRPRPRPPCYPRP
The “shrunken log2 fold change” value of the first is higher: 1.01 for the first, -0.0902 for the second.

RRIRDRPPRLPRPRPRPCFIPRP and RRIRCRPPRLPRPRPRPEYEPRP are within 0.2 log units of each other in “shrunken log2 fold change” value: -0.13 for the first, -0.108 for the second.

RRIRNRPPRLPRPRPRPDKSPRP and RRIRRRPPRLPRPRPRPQNDPRP are within 0.2 log units of each other in “shrunken log2 fold change” value: -0.193 for the first, -0.212 for the second.

Compared with RRIRGRPPRLPRPRPRPWWHPRP, RRIRPRPPRLPRPRPRPVECPRP is higher in “shrunken log2 fold change” value: -0.22 for the first, 0.00863 for the second.

First: RRIRPRPPRLPRPRPRPFSLPRP
Second: RRIRARPPRLPRPRPRPPPGPRP
The “shrunken log2 fold change” value of the first is lower: -0.365 for the first, 1.16 for the second.

RRIRVRPPRLPRPRPRPMECPRP and RRIRQRPPRLPRPRPRPHCMPRP are within 0.2 log units of each other in “shrunken log2 fold change” value: -0.00192 for the first, -0.0175 for the second.

First: RRIRNRPPRLPRPRPRPQGLPRP
Second: RRIRFRPPRLPRPRPRPMCSPRP
The “shrunken log2 fold change” value of the first is higher: -0.109 for the first, -0.687 for the second.

Compared with RRIRGRPPRLPRPRPRPTYTPRP, RRIRNRPPRLPRPRPRPYLHPRP is lower in “shrunken log2 fold change” value: 0.249 for the first, -0.429 for the second.

RRIRFRPPRLPRPRPRPDAMPRP and RRIRSRPPRLPRPRPRPARFPRP are within 0.2 log units of each other in “shrunken log2 fold change” value: 0.138 for the first, 0.181 for the second.

Compared with RRIRERPPRLPRPRPRPDIHPRP, RRIRWRPPRLPRPRPRPQCRPRP is higher in “shrunken log2 fold change” value: -0.512 for the first, -0.00115 for the second.

First: RRIRFRPPRLPRPRPRPPHSPRP
Second: RRIRHRPPRLPRPRPRPPSYPRP
The “shrunken log2 fold change” value of the first is higher: 0.386 for the first, -0.266 for the second.

First: RRIRWRPPRLPRPRPRPDINPRP
Second: RRIRDRPPRLPRPRPRPYKVPRP
The “shrunken log2 fold change” value of the first is higher: 0.235 for the first, -0.687 for the second.

Compared with RRIRHRPPRLPRPRPRPDGLPRP, RRIRSRPPRLPRPRPRPEFGPRP is higher in “shrunken log2 fold change” value: -0.0219 for the first, 0.358 for the second.

With RRIRNRPPRLPRPRPRPPYFPRP the “shrunken log2 fold change” value was -0.172.
